Source: patent US20050137135A1 (priority 2002, published 2005)
“Also recorded” adds a separate entry of the source. Ends that are not written are not given here.

Experiments:
[1] = system: caspase-3 activity in INS-1 (832/13) cells; assay: Caspase-3 activity induced by glucose deprivation; format: cell-based; conditions: 6 h; 100 nM GIP, 10 µM forskolin
Procedure: (§1) INS-1 cells (clone 832/13) seeded into 6-well plates were serum starved for 12-24 h and subjected to glucose deprivation (RPMI with 0.1% BSA) or treatment with 2 mM streptozotocin (STZ). […] Following treatment, caspase-3 activity was determined after 2, 6, or 24 h according to the manufacturers' protocol (Molecular Probes, Eugene, Oreg., USA). Caspase-3 activity/well was corrected for total protein content using the BCA protein assay (Pierce, Roxford, II, USA).

[2] = system: INS-1 cells (clone 832/13); assay: Insulin release from INS-1 (832/13) cells; format: cell-based; conditions: 10 nM GIP, 60 minutes, n=3
From the text: (§2) Cell passages 45-60 were used.

INS-1 (832/13) cells [3] = assay: Cell survival during glucose deprivation (CYQUANT); format: cell-based
Procedure: as §2
Cells were seeded into 96-well plates (5×10^4 cells/well) prior to experimentation. […] Cells were quantified using the CYQUANT™ assay system (Molecular Probes, Eugene, Oreg., USA) according to the manufacturers' protocol.
Cell survival was assessed in the presence of prolonged glucose deprivation.

INS-1 (832/13) cells [4] = assay: Glucose dependent β-cell proliferation (CYQUANT cell quantification); format: cell-based
Procedure: as §2
Cells were seeded into 96-well plates (5×10^4 cells/well) prior to experimentation. […] Thereafter, cells were washed with KRBH (115 mM NaCl, 4.7 mM KCl, 1.2 mM KH2PO4, 10 mM NaHCO3, 1.28 mM CaCl2, 1.2 mM MgSO4 containing 10 mM HEPES and 0.1% bovine serum albumin, pH 7.4) and frozen at −70° C. until assayed. Cells were quantified using the CYQUANT™ assay system (Molecular Probes, Eugene, Oreg., USA) according to the manufacturers' protocol. Final cell numbers were always greater than the initial number plated in assessing cellular proliferation.

[5] = system: caspase-3 activity in INS-1 (832/13) cells; assay: Caspase-3 activity induced by streptozotocin (STZ); format: cell-based; conditions: added 10 minutes prior to and during a 30 minute STZ exposure
Procedure: as §1

[6] = in vivo; cited from earlier work
[7] = target: T1, rat pancreatic islet (wild type) GIP-receptor stably expressed on CHO-K1 cells (rat) (UniProt P43219); assay: competition with 125I-GIP on intact CHO-K1 cells expressing rat GIP receptor
T1 sequence (looked up): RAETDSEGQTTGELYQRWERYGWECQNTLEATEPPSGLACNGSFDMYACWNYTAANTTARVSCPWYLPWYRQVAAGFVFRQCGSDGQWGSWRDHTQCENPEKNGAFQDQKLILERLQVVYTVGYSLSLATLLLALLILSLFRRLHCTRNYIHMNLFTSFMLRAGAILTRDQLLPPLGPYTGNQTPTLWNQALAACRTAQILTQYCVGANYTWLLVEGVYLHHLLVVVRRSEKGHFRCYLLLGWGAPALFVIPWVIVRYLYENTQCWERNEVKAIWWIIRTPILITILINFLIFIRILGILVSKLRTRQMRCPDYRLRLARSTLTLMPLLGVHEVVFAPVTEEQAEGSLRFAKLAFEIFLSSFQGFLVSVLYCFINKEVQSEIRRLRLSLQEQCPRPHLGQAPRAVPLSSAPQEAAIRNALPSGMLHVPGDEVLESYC

[8] = target: T1, rat pancreatic islet (wild type) GIP-receptor stably expressed on CHO-K1 cells (rat); assay: cell-based or functional assay
[9] = target: T1, rat pancreatic islet (wild type) GIP-receptor stably expressed on CHO-K1 cells (rat); assay: displacement of 125I-GIP from intact CHO-K1 cells expressing rat GIP receptor, 10 µM peptide
[10] = target: T2, rat pancreatic islet (wild type) GIP-receptor stably expressed on CHO-K1 cells (rat, UniProt P43219 19-455); assay: as above
T2 construct: whole, on cells; also called wtGIPR cells; wtGIP-R1 cells
T2 sequence (looked up): T1 sequence (looked up)
Procedure: (§3) Cells were cultured in DMEM/F12, supplemented with 10% newborn calf serum, 50 units/ml penicillin G, and 50 μg/ml streptomycin (Culture media and antibiotics from Gibco BRL, Life Technologies). Cells were grown in 75 cm² flasks until 80-90% confluent, when they were split and seeded onto 24 well plates at a density of 50,000 cells/well. Experiments were carried out 48 h later.
(§4) Binding studies using ¹²⁵I-labeled spGIP₁₋₄₂, purified by high performance liquid chromatography (HPLC), were performed essentially as described previously-[21]. wtGIP-R1 Cells (1-5×10⁵/well) were washed twice at 4° C. in binding buffer (BB), consisting of DMEM/F12 (GIBCO), 15 mM HEPES, 0.1% bovine serum albumin (BSA), 1% Trasylol (aprotinin; Bayer), pH 7.4. They were incubated for 12-16 h at 4° C. with ¹²⁵I-spGIP (50,000 cpm) in the presence or absence of unlabeled GIP₁₋₄₂ or analogue. Following incubation, cells were washed twice with ice cold buffer, solubilized with 0.1 M NaOH (1 ml), and transferred to culture tubes for counting of cell-associated radioactivity. Nonspecific binding was defined as that measured in the presence of 1 μM GIP₁₋₄₂ or GIP₁₋₃₀, and specific binding expressed as % of binding in the absence of competitor (% B/Bo).

[11] = target: T2, rat pancreatic islet (wild type) …; assay: competition with 125I-GIP on intact CHO-K1 cells expressing rat GIP receptor
Procedure: as §3, §4

[12] = target: T2, rat pancreatic islet (wild type) …; assay: cell-based or functional assay

Sequence of GIP 15-42OH (peptide) (P09681 66-93): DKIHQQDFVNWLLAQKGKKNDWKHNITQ

CC(=O)N[C@@H](CC(=O)O)C(=O)N[C@@H](CCC(=O)O)C(=O)N[C@H](C(=O)N[C@H](C=O)CC(=O)O)C(C)C [Ac-DEVD-CHO]
0 mM glucose induced caspase-3 activity [1]: completely blocked low glucose activation

CC[C@H](C)[C@H](NC(=O)[C@H](CO)NC(=O)[C@H](Cc1ccc(O)cc1)NC(=O)[C@H](CC(=O)O)NC(=O)[C@H](CO)NC(=O)[C@@H](NC(=O)[C@H](Cc1ccccc1)NC(=O)[C@@H](NC(=O)CNC(=O)[C@H](CCC(=O)O)NC(=O)[C@H](C)NC(=O)[C@@H](N)Cc1ccc(O)cc1)[C@@H](C)O)[C@@H](C)CC)C(=O)N[C@@H](C)C(=O)N[C@@H](CCSC)C(=O)N[C@@H](CC(=O)O)C(=O)N[C@@H](CCCCN)C(=O)N[C@H](C(=O)N[C@@H](Cc1c[nH]cn1)C(=O)N[C@@H](CCC(N)=O)C(=O)N[C@@H](CCC(N)=O)C(=O)N[C@@H](CC(=O)O)C(=O)N[C@@H](Cc1ccccc1)C(=O)N[C@H](C(=O)N[C@@H](CC(N)=O)C(=O)N[C@@H](Cc1c[nH]c2ccccc12)C(=O)N[C@@H](CC(C)C)C(=O)N[C@@H](CC(C)C)C(=O)N[C@@H](C)C(=O)N[C@@H](CCC(N)=O)C(=O)N[C@@H](CCCCN)C(=O)NCC(=O)N[C@@H](CCCCN)C(=O)N[C@@H](CCCCN)C(=O)N[C@@H](CC(N)=O)C(=O)N[C@@H](CC(=O)O)C(=O)N[C@@H](Cc1c[nH]c2ccccc12)C(=O)N[C@@H](CCCCN)C(=O)N[C@@H](Cc1c[nH]cn1)C(=O)N[C@@H](CC(N)=O)C(=O)N[C@H](C(=O)N[C@H](C(=O)N[C@@H](CCC(N)=O)C(=O)O)[C@@H](C)O)[C@@H](C)CC)C(C)C)[C@@H](C)CC [GIP, glucose-dependent insulinotropic polypeptide]
0 mM glucose induced caspase-3 activity [1]: completely reversed; also recorded: ablates | 5.5 mM glucose stimulated insulin secretion [2]: 2.44±0.29 % total insulin secreted | effect on cell survival during glucose deprivation (INS-1 (832/13) cells [3]; 0 mM glucose): promotes INS-1 (832/13) cell survival during glucose deprivation in a concentration-dependent manner | protection against wortmannin-induced cell loss (INS-1 (832/13) cells [3]; n=3, p<0.05): partially protected; also recorded: partially reversed | potentiation of glucose dependent β-cell proliferation (INS-1 (832/13) cells [4]; 11 mM glucose): potentiates 11 mM glucose induced cell growth | cell proliferation, % of growth in the presence of 5.5 mM glucose (INS-1 (832/13) cells [4]; 11 mM glucose, 100 nM, FIG. 15A): 158±16% | cell growth, % of that measured in the presence of 5.5 mM glucose (INS-1 (832/13) cells [4]; separate experiment, 100 nM, n=4): 131±7% | STZ induced caspase-3 activity [5]: protect against the pro-apoptotic (caspase-3 activating) effects of STZ completely; also recorded: ablates | biological half-life [6]: ~2 min

GIP 15-42OH (peptide)
IC50 [7]: 1270 nM | cAMP Production (Fold Basal) at 10 µM [8]: 1.02 fold basal | cAMP Production (Fold Basal) at 20 µM [8]: 1.01 fold basal | % Displacement at 10 µM [9]: 83.3%

IRQQDFVNWLLAQK-NH2 (peptide, UniProt P01281 17-30, looked up, range 17-30; also called GIP17-30a) [GIP 17-30NH2]
% Displacement at 10 µM [10]: 81.9% | IC50 [11]: 1540 nM | cAMP Production (Fold Basal) at 10 µM [12]: 1.13 fold basal | cAMP Production (Fold Basal) at 20 µM [12]: 1.12 fold basal

DKIRQQDFVNWLLAQK-NH2 (peptide, UniProt P01281 15-30, looked up, range 15-30; also called GIP15-30a) [GIP 15-30NH2]
% Displacement at 10 µM [10]: 82.7% | IC50 [11]: 1400 nM | cAMP Production (Fold Basal) at 10 µM [12]: 1.24 fold basal | cAMP Production (Fold Basal) at 20 µM [12]: 1.01 fold basal
